Measurements reported in patent US20260242478A1 (published 2026).
Where no end group is shown, it is not given here.

B1: Phage-2803 (peptide)
peptide: VKHVCMPEWMCYWS
modifications: cysteine pairing not given here; also: fused to pIII, displayed on bacteriophage
B2: Phage-2790 (peptide)
peptide: VMKWCTPSWMCAEA
modifications: cysteine pairing not given here; also: fused to pIII, displayed on bacteriophage
B3: Phage-2819 (Peptide-180 library clone) (peptide)
peptide: IDKWCKPVWMCADN
modifications: cysteine pairing not given here; also: fused to pIII, displayed on bacteriophage
B4: Phage-2799 (peptide)
peptide: ESKWCVPTWMCAEN
modifications: cysteine pairing not given here; also: fused to pIII, displayed on bacteriophage
B5: Phage-2820 (Peptide-180 library clone) (peptide)
peptide: FEKWCTPLWMCADS
modifications: cysteine pairing not given here; also: fused to pIII, displayed on bacteriophage

Columns and labels:
PSMA Fab [1] = target: T1, PSMA Fab (biotinylated (site not stated)); test: clonal phage ELISA on biotinylated PSMA Fab captured on neutravidin plates, anti-M13 HRP detection;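 also: crude clonal phage supernatants tested, before phage were added, wells were pretreated with PSMA antigen in blocking buffer or with blocking buffer only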
T1 construct: also called Anti-PSMA Fab; 006 PSMA Fab

PSMA Fab [2] = target: T1, PSMA Fab; test: clonal phage ELISA on captured biotinylated PSMA Fab; competitor: PSMA antigen at saturating concentration
Description: (§1) Clonal phage were harvested as crude supernatants and screened via standard ELISAs. […] Prior to the addition of clonal phage. wells were incubated with blocking buffer and PSMA antigen or blocking buffer alone. Without washing or aspirating, clonal phage supernatants were then added to the wells and incubated for a short time. Wells were then washed followed by detection of bound phage using a horse radish conjugated anti-M13 antibody.

PSMA Fab (006 PSMA Fab) [3] = target: T2, PSMA Fab (006 PSMA Fab) (biotinylated for capture on neutravidin plates (site not stated)); test: clonal phage ELISA on captured PSMA Fab pre-incubated with PSMA antigen as competitor, anti-M13-HRP detection;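 also: wells blocked with buffer plus PSMA antigen before phage addition, with blocking buffer alone as the no-competitor control, bound phage detected after washing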
T2 construct: also called Anti-PSMA Fab

PSMA Fab (006 PSMA Fab) [4] = target: T2, PSMA Fab (006 PSMA Fab); test: clonal phage ELISA on biotinylated PSMA Fab captured on neutravidin plates, anti-M13-HRP detection;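 also: crude clonal phage supernatants added to wells preincubated with PSMA antigen or with blocking buffer only (no wash between), briefly incubated, then washed before detecting bound phage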
Description: as §1

PSMA Fab (006 PSMA Fab) [5] = target: T3, PSMA Fab (006 PSMA Fab); test: phage ELISA; biotinylated PSMA Fab on neutravidin plate, clonal phage supernatant, anti-M13 HRP detection;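 also: wells preincubated with PSMA antigen in blocking buffer or with blocking buffer only before clonal phage were added for a short incubation, then bound phage detected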
T3 construct: In the phage ELISA the PSMA Fab was biotinylated and captured on neutravidin coated plates; also called Anti-PSMA Fab; anti-PSMA Fab
Description: as §1

PSMA Fab (006 PSMA Fab) [6] = target: T3, PSMA Fab (006 PSMA Fab); test: phage ELISA; PSMA Fab on plate pre-incubated with PSMA antigen as competitor, anti-M13 HRP detection;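 also: crude clonal phage supernatants added to Fab-coated wells still holding PSMA antigen in blocking buffer, with bound phage as read-out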
Description: as §1

| Binder | Phage binding ELISA signal, Anti-PSMA Fab (PSMA Fab [1]) | phage binding ELISA signal (Anti-PSMA Fab, wells pre-incubated with PSMA antigen) (PSMA Fab [2]) | Phage binding ELISA signal, Anti-PSMA Fab in presence of PSMA (PSMA Fab (006 PSMA Fab) [3]) | Phage binding ELISA signal, Anti-PSMA Fab (PSMA Fab (006 PSMA Fab) [4]) | also measured |
| --- | --- | --- | --- | --- | --- |
| HFKWCIPPWMCLEI [Phage-2798] | 0.588 | 0.298 |  |  |  |
| WEKWCTPSWMCSGI [Phage-2791] | 0.598 | 0.0859 |  |  |  |
| VGKWCTPEWMCSGF [Phage-2789] | 0.6 | 0.0562 |  |  |  |
| B1 |  |  | 0.0724 | 0.57 |  |
| TPKWCTPAWMCVVS [Phage-2802] | 0.575 | 0.077 |  |  |  |
| SVHMCKPPWMCQSM [Phage-2818] |  |  | 0.077 | 0.509 |  |
| DVKWCTPRWMCELS [Phage-2829 (Peptide-180 library clone)] |  |  |  |  | Phage binding ELISA signal, Anti-PSMA Fab (PSMA Fab (006 PSMA Fab) [5]): 0.457; phage binding ELISA signal (Anti-PSMA Fab, PSMA antigen present) (PSMA Fab (006 PSMA Fab) [6]): 0.0913 |
| WDNWCTPSWMCSTA [Phage-2821 (Peptide-180 library clone)] |  |  |  |  | Phage binding ELISA signal, Anti-PSMA Fab (PSMA Fab (006 PSMA Fab) [5]): 0.488; phage binding ELISA signal (Anti-PSMA Fab, PSMA antigen present) (PSMA Fab (006 PSMA Fab) [6]): 0.0814 |
| MEKWCTPRWMCVGM [Phage-2808] |  |  | 0.0734 | 0.565 |  |
| GVNWCVPPWMCLND [Phage-2823 (Peptide-180 library clone)] |  |  |  |  | Phage binding ELISA signal, Anti-PSMA Fab (PSMA Fab (006 PSMA Fab) [5]): 0.484; phage binding ELISA signal (Anti-PSMA Fab, PSMA antigen present) (PSMA Fab (006 PSMA Fab) [6]): 0.0879 |
| PMKWCTPPWMCSYS [Phage-2814] |  |  | 0.063 | 0.538 |  |
| GDKWCKPSWMCDFF [Phage-2816] |  |  | 0.072 | 0.526 |  |
| MMHWCTPPWMCEFS [Phage-2805] |  |  | 0.0626 | 0.568 |  |
| DIRWCTPPWMCMHL [Phage-2822 (Peptide-180 library clone)] |  |  |  |  | Phage binding ELISA signal, Anti-PSMA Fab (PSMA Fab (006 PSMA Fab) [5]): 0.486; phage binding ELISA signal (Anti-PSMA Fab, PSMA antigen present) (PSMA Fab (006 PSMA Fab) [6]): 0.258 |
| GEKWCSPAWMCEWL [Phage-2828 (Peptide-180 library clone)] |  |  |  |  | Phage binding ELISA signal, Anti-PSMA Fab (PSMA Fab (006 PSMA Fab) [5]): 0.459; phage binding ELISA signal (Anti-PSMA Fab, PSMA antigen present) (PSMA Fab (006 PSMA Fab) [6]): 0.0817 |
| EGKWCTPTWMCQGF [Phage-2804] |  |  | 0.0945 | 0.57 |  |
| TQHWCTPIWMCEGL [Phage-2792] | 0.597 | 0.0819 |  |  |  |
| ERIWCTPKWMCETF [Phage-2797] | 0.589 | 0.0657 |  |  |  |
| EAKWCTPPWMCSLV [Phage-2817] |  |  | 0.0546 | 0.525 |  |
| B2 | 0.599 | 0.0742 |  |  |  |
| GLPWCVPQWMCVVS [Phage-2824 (Peptide-180 library clone)] |  |  |  |  | Phage binding ELISA signal, Anti-PSMA Fab (PSMA Fab (006 PSMA Fab) [5]): 0.482; phage binding ELISA signal (Anti-PSMA Fab, PSMA antigen present) (PSMA Fab (006 PSMA Fab) [6]): 0.0721 |
| IDKWCVPAWMCSPA [Phage-2815] |  |  | 0.06 | 0.538 |  |

| Binder | Phage binding ELISA signal, Anti-PSMA Fab (PSMA Fab [1]) | phage binding ELISA signal (Anti-PSMA Fab, wells pre-incubated with PSMA antigen) (PSMA Fab [2]) | Phage binding ELISA signal, Anti-PSMA Fab in presence of PSMA (PSMA Fab (006 PSMA Fab) [3]) | Phage binding ELISA signal, Anti-PSMA Fab (PSMA Fab (006 PSMA Fab) [4]) | also measured |
| --- | --- | --- | --- | --- | --- |
| WENWCIPQWMCGTA [Phage-2807] |  |  | 0.141 | 0.565 |  |
| MDIWCKPRWMCEEY [Phage-2810] |  |  | 0.0676 | 0.562 |  |
| SSNWCTPAWMCVTS [Phage-2826 (Peptide-180 library clone)] |  |  |  |  | Phage binding ELISA signal, Anti-PSMA Fab (PSMA Fab (006 PSMA Fab) [5]): 0.47; phage binding ELISA signal (Anti-PSMA Fab, PSMA antigen present) (PSMA Fab (006 PSMA Fab) [6]): 0.0627 |
| LNNWCTPAWMCVGY [Phage-2796] | 0.589 | 0.084 |  |  |  |
| B3 |  |  |  |  | Phage binding ELISA signal, Anti-PSMA Fab (PSMA Fab (006 PSMA Fab) [5]): 0.5; phage binding ELISA signal (Anti-PSMA Fab, PSMA antigen present) (PSMA Fab (006 PSMA Fab) [6]): 0.0659 |
| QAIWCIPDWMCVQN [Phage-2830 (Peptide-180 library clone)] |  |  |  |  | Phage binding ELISA signal, Anti-PSMA Fab (PSMA Fab (006 PSMA Fab) [5]): 0.454; phage binding ELISA signal (Anti-PSMA Fab, PSMA antigen present) (PSMA Fab (006 PSMA Fab) [6]): 0.137 |
| VTKLCIPEWMCVIQ [Phage-2809] |  |  | 0.0595 | 0.562 |  |
| YHKWCTPEWMCVFD [Phage-2825 (Peptide-180 library clone)] |  |  |  |  | Phage binding ELISA signal, Anti-PSMA Fab (PSMA Fab (006 PSMA Fab) [5]): 0.474; phage binding ELISA signal (Anti-PSMA Fab, PSMA antigen present) (PSMA Fab (006 PSMA Fab) [6]): 0.0666 |
| FSKLCTPPWMCSVS [Phage-2813] |  |  | 0.276 | 0.543 |  |
| LEKWCIPSQLCQLD [Phage-2827 (Peptide-180 library clone)] |  |  |  |  | Phage binding ELISA signal, Anti-PSMA Fab (PSMA Fab (006 PSMA Fab) [5]): 0.464; phage binding ELISA signal (Anti-PSMA Fab, PSMA antigen present) (PSMA Fab (006 PSMA Fab) [6]): 0.0743 |
| SVKWCTPSWMCTEW [Phage-2788] | 0.601 | 0.104 |  |  |  |
| TEKWCIPQWMCVRT [Phage-2794] | 0.592 | 0.0656 |  |  |  |
| GATWCTPTWMCTGF [Phage-2806] |  |  | 0.117 | 0.566 |  |
| B4 | 0.583 | 0.0578 |  |  |  |
| DYKWCTPPWMCDSR [Phage-2800] | 0.58 | 0.0697 |  |  |  |
| VTNWCTPPWMCEML [Phage-2793] | 0.596 | 0.213 |  |  |  |
| SDNWCKPEWMCVGH [Phage-2801] | 0.578 | 0.0873 |  |  |  |
| VPKWCTPSWMCEFT [Phage-2811] |  |  | 0.0648 | 0.56 |  |
| B5 |  |  |  |  | Phage binding ELISA signal, Anti-PSMA Fab (PSMA Fab (006 PSMA Fab) [5]): 0.5; phage binding ELISA signal (Anti-PSMA Fab, PSMA antigen present) (PSMA Fab (006 PSMA Fab) [6]): 0.0612 |
| FEKWCTPQWMCNSM [Phage-2795] | 0.59 | 0.0699 |  |  |  |
| VGPWCIPDWMCDVV [Phage-2812] |  |  | 0.0755 | 0.554 |  |
